B1: TuDOG1 (Tetranychus urticae) (protein)
chain: DVHRRGKFLPHDRTVINCASLNRKAHQHSSVLAPFTTEGPFFLPDDLKRSDITDGQKGIPLELTIKLTNAKDCTPISNFFIHAWQTNATGVYSGIDEDTAPLSGFRPTPVNRDRSLRGYQETDANGEVKFLTILPGWYSGRAIHIHIEVYAKDITDENKITYIGQFYFEHDFPLKLRKIYPYSTNTQRIIFNEQDYYYVHDHGDETTLDLKHNGAKFSSYATVAIDPTVTVHVQ
notes: signal peptide removed, N-terminal 6xHis kept, pJExpress 411, E. coli BL21(DE3), codon optimized (ATUM), 25-37 kDa
B2: TuDOG11 (Tetranychus urticae) (protein)
chain: HLQRPGKFLPHDRSIVDCARYKREANQHTCVLAPFTTEGPYFLPDDLERSDITDGQTGVNLDLNLKLTNAKDCSPLSNYFVHVWQANALGHYSGVNELFPVGFRPKPISGERFLRGYQKTNEDGEVNFKTIIPGWYVGRCIHIHVEVYAKNNTDGNAVNYIGQLYFERDIPSSLRLVEPYSTNVNEITLNDSDGVYLLTHGNDTLIDLVPQESGFRTDYIVAIDPDVSIKYDWLDI
notes: as for B1
B3: TuDOG15 (Tetranychus urticae) (protein)
chain: DHERPGKYLEHDSTVINCARYKREANQHSCVLAPYAVEGPYFLPDDLERSNLAEDKVGVSLDLAIRLVNSNDCTPLTNMFVHVWHADALGVYSGVPDLAELFVERMRQENKTLPPFWGPEGAYEGRRPGGPGGPGGPGGPGGPGDMEMPGRPTPVNNERFLRGYQVTNEAGEVNFKTIIPGWYTGRSLHIHVEVYSKNTTEPGEVNYIGQIFFKDDLPAELKLIEPYSLNQNILVLNPQDGIYNFAHGEQTKIQLENRETGYFGSMTFGINPNAH
B4: TuDOG7 (Tetranychus urticae) (protein)
chain: ERSIEILNHDATVIDCARYKREANQHKCVITPFTTEGPYFLPDDYERSDITDGYTGVNLNLTLLLTNAKDCSPLSNYYVHIWNANAMGHYSGVKEFNFFDHPTFRPKPINNLRFLRGYQITNEDGLVNFNTIIPGWYFGRCIHIHVEIYDKNTTDGHAVSYIGQLYFNREMPAALKLIDPYSQNNNELTLNDQDIVFALSRGSDTILELIPEGNGYSASYVLSIDPTVKVENSVLPFEDPRNVSFIEH
B5: TuDOG16 (Tetranychus urticae) (protein)
chain: HSERPGKFLEHDRSIVNCARYKREANQHTCVLAPFATEGPYFLADDLERSDITDGQTGVNLDLNLKLTNAKDCSPLSGYFVHIWNANALGHYSGVQEFNKFPKQTFRPKPIYDTRWLRGYQVTNEDGEVNFKTIVPGWYYGRCLHIHVEVYSKNTTDTNAITYIGQLYFKRELPVQLKLVEPYSSNQNELKFNEQDKVFNGMHGNDTITELVFEENNAKTSFILALDPTVTTLTNGTVVN
notes: as for B1

Substrate in the first series: Cc1ccc(O)c(O)c1
Put plainly: purified protein. To be noted: 0.1 M PBS pH 7.5, 25 °C, O2 co-substrate (air), Fe enzyme, kcat corrected for iron content. It counts as biochemical, Tetranychus urticae.
For the molecule B1, the Michaelis-Menten constant (Km) was determined as 15.1 ± 2.7 µM, the Vmax turned out to be 0.12 µM/min, the kcat is 0.0324 ± 0.0027 s⁻¹ and the kcat/Km came to 2150 ± 1000 M⁻¹ s⁻¹.
On the same counts, the results for B2 are 153.9 ± 24.6 µM, 0.58 µM/min, 0.0553 ± 0.00382 s⁻¹ and 367 ± 150 M⁻¹ s⁻¹.
On the same counts, the results for B3 are 117.4 ± 46.5 µM, 1.77 µM/min, 0.261 ± 0.0546 s⁻¹ and 2230 ± 1170 M⁻¹ s⁻¹.
On the same counts, the results for B4 are 62.2 ± 42.3 µM, 0.53 µM/min, 0.0282 ± 0.0122 s⁻¹ and 450 ± 283 M⁻¹ s⁻¹.
As to B5, the Km worked out at 52.4 ± 19.6 µM, the maximum rate (Vmax) is 0.14 µM/min, the catalytic constant (kcat) worked out at 0.0188 ± 0.00268 s⁻¹ and the kcat/Km amounted to 367 ± 133 M⁻¹ s⁻¹.

The subject of the next series is Oc1ccc(Cl)cc1O. The experiment in a line: purified protein. To be noted: 0.1 M PBS pH 7.5, 25 °C, O2 co-substrate (air), Fe enzyme, kcat corrected for iron content.
On to TuDOG7 (Tetranychus urticae), for which the Km stood at 115.2 ± 35.7 µM, the Vmax amounted to 0.96 µM/min, the catalytic constant (kcat) is 0.051 ± 0.0122 s⁻¹ and the catalytic efficiency (kcat/Km) is 450 ± 350 M⁻¹ s⁻¹.
For the molecule TuDOG11 (Tetranychus urticae), the Km was 25.2 ± 4.6 µM, the maximum rate (Vmax) stood at 0.09 µM/min, the turnover number (kcat) worked out at 0.00858 ± 0.00095 s⁻¹ and the catalytic efficiency (kcat/Km) was found to be 333 ± 200 M⁻¹ s⁻¹.
Consider TuDOG1 (Tetranychus urticae), for which the Michaelis-Menten constant (Km) stood at 21.2 ± 7.4 µM, the maximal velocity (Vmax) came to 0.08 µM/min, the kcat turned out to be 0.0216 ± 0.0027 s⁻¹ and the catalytic efficiency (kcat/Km) came to 1020 ± 367 M⁻¹ s⁻¹.
On to TuDOG16 (Tetranychus urticae), for which the Michaelis constant (Km) was 154.3 ± 20.9 µM, the Vmax came out at 0.31 µM/min, the kcat turned out to be 0.0416 ± 0.00135 s⁻¹ and the catalytic efficiency (kcat/Km) is 267 ± 66.7 M⁻¹ s⁻¹.
On the same counts, the results for TuDOG15 (Tetranychus urticae) are 72.0 ± 21.3 µM, 0.62 µM/min, 0.0915 ± 0.0133 s⁻¹ and 1270 ± 617 M⁻¹ s⁻¹.

Substrate in the next series: Oc1ccccc1O
The experiment in a line: purified protein. To be noted: 0.1 M PBS pH 7.5, 25 °C, O2 co-substrate (air), Fe enzyme, kcat corrected for iron content.
For B1, the Michaelis constant (Km) amounted to 15.2 ± 4.5 µM, the maximal velocity (Vmax) stood at 0.14 µM/min, the kcat came to 0.0378 ± 0.0027 s⁻¹ and the specificity constant (kcat/Km) amounted to 2480 ± 600 M⁻¹ s⁻¹.
For the molecule B2, the Michaelis constant (Km) is 64.9 ± 24.3 µM, the Vmax was 0.56 µM/min, the kcat amounted to 0.0534 ± 0.00382 s⁻¹ and the kcat/Km worked out at 817 ± 150 M⁻¹ s⁻¹.
In the same order, the values of B3 are 91.0 ± 21.2 µM, 0.09 µM/min, 0.0133 ± 0.00148 s⁻¹ and 150 ± 66.7 M⁻¹ s⁻¹.
In the same order, the values of B4 are 74.9 ± 30.9 µM, 0.42 µM/min, 0.0223 ± 0.00318 s⁻¹ and 300 ± 100 M⁻¹ s⁻¹.
On to B5, for which the Km is 51.0 ± 23.4 µM, the maximal velocity (Vmax) came to 0.06 µM/min, the turnover number (kcat) turned out to be 0.00805 ± 0.00135 s⁻¹ and the specificity constant (kcat/Km) is 150 ± 50 M⁻¹ s⁻¹.

One may read the Km as the substrate concentration at which the rate is half of its maximum. The Vmax is the rate approached at saturating substrate. For orientation: kcat means the maximal rate divided by the concentration of active sites. In general, kcat/Km refers to the turnover number divided by the Michaelis constant.
